This is an account of results in US20100015137A1 (IMMUNEX, published 2010).

In this experiment the target is T1, full length human TRAIL receptor (TRAIL-R) (human, UniProt O14763 56-440).
T1 construct: The signal peptide is only predicted (residues 1-51)
As to the kind of experiment: flow cytometry on transfected CV-1/EBNA cells, LZ-TRAIL at 5 µg/ml. The protocol:
CV-1/EBNA cells were co-transfected with pDC409-TRAIL-R together with pDC409-CrmA, or with pDC409-CrmA alone. The cells were cultured in DMEM supplemented with 10% fetal bovine serum, penicillin, streptomycin, and glutamine. […] The cytometric analysis was conducted on a FACscan (Beckton Dickinson, San Jose, Calif.).
Background: In flow cytometry, cells or beads pass a laser one at a time.

B1: LZ-TRAIL (leucine zipper peptide fused to the N-terminus of a soluble human TRAIL polypeptide) (ligand, UniProt P50591 95-281, looked up)
chain: TSEETISTVQEKQQNISPLVRERGPQRVAAHITGTRGRSNTLSSPNSKNEKALGRKINSWESSRSGHSFLSNLHLRNGELVIHEKGFYYIYSQTYFRFQEEIKENTKNDKQMVQYIYKYTSYPDPILLMKSARNSCWSKDAEYGLYSIYQGGIFELKENDRIFVSVTNEHLIDMDHEASFFGAFLVG
notes: range 95-281; also called LZ-huTRAIL; not shown: modified leucine zipper that allows for trimerization
For the molecule B1, the binding result was “binds”.
